# B1: NRC3_random_hg19_133_o1 (dsDNA)
# DNA 1: GCTCAAGGAGAAAGACACTCCTTTGAAGCGTTGGAAGCGATTGACAGCGTAGAATGAAGG
# DNA 2: CCTTCATTCTACGCTGTCAATCGCTTCCAACGCTTCAAAGGAGTGTCTTTCTCCTTGAGC
# B2: NRC3_wobSeed120_DR4_G21C_o1 (dsDNA)
# DNA 1: GCCCGAGTAGGTTACGAGGGCGCATTCAGTGCGAATGCGATTGACAGCGTAGAATGAAGG
# DNA 2: CCTTCATTCTACGCTGTCAATCGCATTCGCACTGAATGCGCCCTCGTAACCTACTCGGGC
# B3: NRC3_random_hg19_349_o1 (dsDNA)
# DNA 1: GCAGTGTATGCTAAACACCTTCACTTACCTTCCTCAGCGATTGACAGCGTAGAATGAAGG
# DNA 2: CCTTCATTCTACGCTGTCAATCGCTGAGGAAGGTAAGTGAAGGTGTTTAGCATACACTGC
# B4: NRC3_random_hg19_271_o1 (dsDNA)
# DNA 1: GCCTCCCTCCCATCGCCTGAACCTGCTGGAATGAGCGCGATTGACAGCGTAGAATGAAGG
# DNA 2: CCTTCATTCTACGCTGTCAATCGCGCTCATTCCAGCAGGTTCAGGCGATGGGAGGGAGGC
# B5: NRC3_random_hg19_40_o1 (dsDNA)
# DNA 1: GCAAGAACCAGTGGATTCATAAGGGTGACAGTTCAGGCGATTGACAGCGTAGAATGAAGG
# DNA 2: CCTTCATTCTACGCTGTCAATCGCCTGAACTGTCACCCTTATGAATCCACTGGTTCTTGC
# B6: NRC3_random_hg19_496_o1 (dsDNA)
# DNA 1: GCAGCATCTGACAAGGCTGACTACTCCCATCTGGATGCGATTGACAGCGTAGAATGAAGG
# DNA 2: CCTTCATTCTACGCTGTCAATCGCATCCAGATGGGAGTAGTCAGCCTTGTCAGATGCTGC
# B7: NRC3_wobSeed134_DR5_A9C_o1 (dsDNA)
# DNA 1: GCGCTGCTCGGTCAACTGATGGTCAGCTAAAGCTCGGCGATTGACAGCGTAGAATGAAGG
# DNA 2: CCTTCATTCTACGCTGTCAATCGCCGAGCTTTAGCTGACCATCAGTTGACCGAGCAGCGC
# B8: NRC3_random_hg19_362_o1 (dsDNA)
# DNA 1: GCGCCTTCTGCACCTCCTCAGTCCCTCTCCCTTTCCGCGATTGACAGCGTAGAATGAAGG
# DNA 2: CCTTCATTCTACGCTGTCAATCGCGGAAAGGGAGAGGGACTGAGGAGGTGCAGAAGGCGC
# B9: NRC3_wobSeed122_DR5_T9A_o1 (dsDNA)
# DNA 1: GCGCTAGTAGGTCAGTAAAAGGTCACACACCGGTCGGCGATTGACAGCGTAGAATGAAGG
# DNA 2: CCTTCATTCTACGCTGTCAATCGCCGACCGGTGTGTGACCTTTTACTGACCTACTAGCGC
# B10: NRC3_wobSeed10_DR0_C13A_o1 (dsDNA)
# DNA 1: GCATCGAAAGGTAGAGGTGAGTATAGAGAAAGGGAAGCGATTGACAGCGTAGAATGAAGG
# DNA 2: CCTTCATTCTACGCTGTCAATCGCTTCCCTTTCTCTATACTCACCTCTACCTTTCGATGC
# B11: NRC3_random_hg19_470_o1 (dsDNA)
# DNA 1: GCCAGGAAGGGACAAAGGCCAGGCATGGTGGTTCATGCGATTGACAGCGTAGAATGAAGG
# DNA 2: CCTTCATTCTACGCTGTCAATCGCATGAACCACCATGCCTGGCCTTTGTCCCTTCCTGGC
# B12: NRC3_wobSeed76_DR3_T21G_o1 (dsDNA)
# DNA 1: GCCCTACTGGGCCAAAAAGGGCATTGATGCCGATAAGCGATTGACAGCGTAGAATGAAGG
# DNA 2: CCTTCATTCTACGCTGTCAATCGCTTATCGGCATCAATGCCCTTTTTGGCCCAGTAGGGC
# B13: NRC3_wobSeed42_DR1_T12A_o1 (dsDNA)
# DNA 1: GCTATACAGGGACAAAGGCCAGAGTACGAATGTCGAGCGATTGACAGCGTAGAATGAAGG
# DNA 2: CCTTCATTCTACGCTGTCAATCGCTCGACATTCGTACTCTGGCCTTTGTCCCTGTATAGC
# B14: NRC3_random_hg19_116_o1 (dsDNA)
# DNA 1: GCTGGGCACATGAGGGATGGGAGTTGATCTCTGTGGGCGATTGACAGCGTAGAATGAAGG
# DNA 2: CCTTCATTCTACGCTGTCAATCGCCCACAGAGATCAACTCCCATCCCTCATGTGCCCAGC
# B15: NRC3_random_hg19_382_o1 (dsDNA)
# DNA 1: GCAATGAAGTGGATGCATGGTTGGTGGCTCAGCAGCGCGATTGACAGCGTAGAATGAAGG
# DNA 2: CCTTCATTCTACGCTGTCAATCGCGCTGCTGAGCCACCAACCATGCATCCACTTCATTGC
# B16: NRC3_wobSeed136_DR5_C23T_o1 (dsDNA)
# DNA 1: GCTAGCCTAGGTCATTCAGGGGTCAGTATAGAAAGCGCGATTGACAGCGTAGAATGAAGG
# DNA 2: CCTTCATTCTACGCTGTCAATCGCGCTTTCTATACTGACCCCTGAATGACCTAGGCTAGC
# B17: NRC3_random_hg19_454_o1 (dsDNA)
# DNA 1: GCTGTCCTTTGTAGCAACATGTATGGAAATGGAGGCGCGATTGACAGCGTAGAATGAAGG
# DNA 2: CCTTCATTCTACGCTGTCAATCGCGCCTCCATTTCCATACATGTTGCTACAAAGGACAGC
# B18: NRC3_random_hg19_267_o1 (dsDNA)
# DNA 1: GCGCCTCAGTCATGAGTCACATGAAAGTGACTCACCGCGATTGACAGCGTAGAATGAAGG
# DNA 2: CCTTCATTCTACGCTGTCAATCGCGGTGAGTCACTTTCATGTGACTCATGACTGAGGCGC
# B19: NRC3_wobSeed114_DR4_T12C_o1 (dsDNA)
# DNA 1: GCAATACAGGGCCATCGTAGGCCAGAGTACGCACAGGCGATTGACAGCGTAGAATGAAGG
# DNA 2: CCTTCATTCTACGCTGTCAATCGCCTGTGCGTACTCTGGCCTACGATGGCCCTGTATTGC
# B20: NRC3_random_hg19_466_o1 (dsDNA)
# DNA 1: GCAGCTTGACTTTGGTGACATTCTTCCTTCGTCCCTGCGATTGACAGCGTAGAATGAAGG
# DNA 2: CCTTCATTCTACGCTGTCAATCGCAGGGACGAAGGAAGAATGTCACCAAAGTCAAGCTGC
# B21: NRC3_random_hg19_489_o1 (dsDNA)
# DNA 1: GCAACAAAGCCTGTATGACAGCACATCTGTGTACAGGCGATTGACAGCGTAGAATGAAGG
# DNA 2: CCTTCATTCTACGCTGTCAATCGCCTGTACACAGATGTGCTGTCATACAGGCTTTGTTGC
# B22: NRC3_wobSeed32_DR1_G18A_o1 (dsDNA)
# DNA 1: GCTCTTGTAGATCAAAGATTAAGAAAGCCGAAGCCTGCGATTGACAGCGTAGAATGAAGG
# DNA 2: CCTTCATTCTACGCTGTCAATCGCAGGCTTCGGCTTTCTTAATCTTTGATCTACAAGAGC
# B23: NRC3_wobSeed99_DR4_A24C_o1 (dsDNA)
# DNA 1: GCTCTCGGAGGACACGAAAGGTCCGAGCTCGACATCGCGATTGACAGCGTAGAATGAAGG
# DNA 2: CCTTCATTCTACGCTGTCAATCGCGATGTCGAGCTCGGACCTTTCGTGTCCTCCGAGAGC
# B24: NRC3_wobSeed30_DR1_G16C_o1 (dsDNA)
# DNA 1: GCACTAGCAGGCCAACGGTCACTCAAGATTAGTCCGGCGATTGACAGCGTAGAATGAAGG
# DNA 2: CCTTCATTCTACGCTGTCAATCGCCGGACTAATCTTGAGTGACCGTTGGCCTGCTAGTGC
# B25: NRC3_random_hg19_279_o1 (dsDNA)
# DNA 1: GCTGCAGTGGTAACAGTCTGACTTCTAAACTGCTATGCGATTGACAGCGTAGAATGAAGG
# DNA 2: CCTTCATTCTACGCTGTCAATCGCATAGCAGTTTAGAAGTCAGACTGTTACCACTGCAGC
# B26: NRC3_wobSeed27_DR1_G17C_o1 (dsDNA)
# DNA 1: GCACTCGGAGGACAAACGTCAGAGCTACGCCAGTGAGCGATTGACAGCGTAGAATGAAGG
# DNA 2: CCTTCATTCTACGCTGTCAATCGCTCACTGGCGTAGCTCTGACGTTTGTCCTCCGAGTGC
# B27: NRC3_random_hg19_146_o1 (dsDNA)
# DNA 1: GCGCCTCTAGGTCTTTGAGGAATTGCCACACTGTCTGCGATTGACAGCGTAGAATGAAGG
# DNA 2: CCTTCATTCTACGCTGTCAATCGCAGACAGTGTGGCAATTCCTCAAAGACCTAGAGGCGC
# B28: NRC3_wobSeed93_DR3_A9C_o1 (dsDNA)
# DNA 1: GCAGTCAACGTTCATCTAGGTAACGTAAGATATGCTGCGATTGACAGCGTAGAATGAAGG
# DNA 2: CCTTCATTCTACGCTGTCAATCGCAGCATATCTTACGTTACCTAGATGAACGTTGACTGC
# B29: NRC3_random_hg19_308_o1 (dsDNA)
# DNA 1: GCATGAACCACTTGAAGGGTGTGGCCTCCATCTTGCGCGATTGACAGCGTAGAATGAAGG
# DNA 2: CCTTCATTCTACGCTGTCAATCGCGCAAGATGGAGGCCACACCCTTCAAGTGGTTCATGC
# Target: RARa:RXRa (Homo sapiens, UniProt P10276;P19793 full;full)
# Experiment: no ligand; PBM; 270 nM : 90 nM RXRa; PBS pH 7.4, 2% milk, 0.02% Triton X-100, 1 mM DTT, BSA, 0.4 mg/ml salmon testes DNA
# Settings: tags: His kept;His cleaved; copies: 1;1; label: surface-attached array probe
# How it was run: (§1)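 Binding buffer was PBS pH 7.4 with 2% milk, 0.02% Triton X-100, 1 mM DTT, 0.2 mg/mL BSA and 0.4 mg/ml salmon testes DNA. In it, ligand-free nuclear receptor dimers were incubated 1 h on custom Agilent 4×180K protein-binding microarrays carrying double-stranded probes. Antibodies against each partner (one per run) detected binding, and z-scores were calculated against random background probes after regression normalization of scanned fluorescence.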
# Sequence of RARa:RXRa (P10276 whole entry, chain 1 of 2): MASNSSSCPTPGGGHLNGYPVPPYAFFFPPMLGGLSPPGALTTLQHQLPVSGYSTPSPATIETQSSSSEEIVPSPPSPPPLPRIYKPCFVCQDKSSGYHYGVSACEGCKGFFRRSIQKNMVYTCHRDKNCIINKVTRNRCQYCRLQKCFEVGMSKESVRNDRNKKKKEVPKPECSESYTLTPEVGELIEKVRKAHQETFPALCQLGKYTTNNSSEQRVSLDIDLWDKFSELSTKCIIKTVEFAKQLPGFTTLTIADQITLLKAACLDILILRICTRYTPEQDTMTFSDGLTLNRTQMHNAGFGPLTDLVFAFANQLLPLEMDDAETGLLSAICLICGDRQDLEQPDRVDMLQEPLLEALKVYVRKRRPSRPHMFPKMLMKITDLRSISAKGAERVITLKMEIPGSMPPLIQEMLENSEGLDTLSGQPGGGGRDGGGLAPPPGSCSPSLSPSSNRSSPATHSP
# Sequence of RARa:RXRa (P19793 whole entry, chain 2 of 2): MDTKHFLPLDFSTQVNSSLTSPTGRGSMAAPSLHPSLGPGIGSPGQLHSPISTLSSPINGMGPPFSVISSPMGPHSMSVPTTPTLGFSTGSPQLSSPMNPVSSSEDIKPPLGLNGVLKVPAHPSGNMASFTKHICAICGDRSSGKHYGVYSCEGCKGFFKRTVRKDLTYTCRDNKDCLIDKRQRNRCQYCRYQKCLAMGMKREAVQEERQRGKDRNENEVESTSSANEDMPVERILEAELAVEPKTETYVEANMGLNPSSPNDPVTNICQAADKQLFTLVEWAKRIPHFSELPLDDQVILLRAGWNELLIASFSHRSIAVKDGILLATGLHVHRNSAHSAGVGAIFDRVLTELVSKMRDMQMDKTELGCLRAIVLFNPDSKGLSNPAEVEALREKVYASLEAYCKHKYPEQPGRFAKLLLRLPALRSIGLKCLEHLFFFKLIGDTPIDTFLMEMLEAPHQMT
row,Binder,binding signal
1,B1,-0.29 PBM z-score against 500 random probes
2,B2,0.37 PBM z-score against 500 random probes
3,B3,-0.1 PBM z-score against 500 random probes
4,B4,0.16 PBM z-score against 500 random probes
5,B5,0.33 PBM z-score against 500 random probes
6,B6,-0.43 PBM z-score against 500 random probes
7,B7,0.23 PBM z-score against 500 random probes
8,B8,0.1 PBM z-score against 500 random probes
9,B9,7.6 PBM z-score against 500 random probes
10,B10,0.4 PBM z-score against 500 random probes
11,B11,-0.18 PBM z-score against 500 random probes
12,B12,-0.04 PBM z-score against 500 random probes
13,B13,0.27 PBM z-score against 500 random probes
14,B14,-0.48 PBM z-score against 500 random probes
15,B15,-0.69 PBM z-score against 500 random probes
16,B16,7.49 PBM z-score against 500 random probes
17,B17,0.46 PBM z-score against 500 random probes
18,B18,-0.31 PBM z-score against 500 random probes
19,B19,-0.01 PBM z-score against 500 random probes
20,B20,0.17 PBM z-score against 500 random probes
21,B21,-0.79 PBM z-score against 500 random probes
22,B22,0.26 PBM z-score against 500 random probes
23,B23,0.41 PBM z-score against 500 random probes
24,B24,0.08 PBM z-score against 500 random probes
25,B25,-0.56 PBM z-score against 500 random probes
26,B26,-0.3 PBM z-score against 500 random probes
27,B27,-0.8 PBM z-score against 500 random probes
28,B28,0.24 PBM z-score against 500 random probes
29,B29,0.27 PBM z-score against 500 random probes

# Target: RARg:RXRa (Homo sapiens, UniProt P13631;P19793 full;full)
# Experiment: as above
# Settings: tags: His kept;His cleaved; copies: 1;1; label: surface-attached array probe
# How it was run: as §1
# Sequence of RARg:RXRa (P13631 whole entry, chain 1 of 2): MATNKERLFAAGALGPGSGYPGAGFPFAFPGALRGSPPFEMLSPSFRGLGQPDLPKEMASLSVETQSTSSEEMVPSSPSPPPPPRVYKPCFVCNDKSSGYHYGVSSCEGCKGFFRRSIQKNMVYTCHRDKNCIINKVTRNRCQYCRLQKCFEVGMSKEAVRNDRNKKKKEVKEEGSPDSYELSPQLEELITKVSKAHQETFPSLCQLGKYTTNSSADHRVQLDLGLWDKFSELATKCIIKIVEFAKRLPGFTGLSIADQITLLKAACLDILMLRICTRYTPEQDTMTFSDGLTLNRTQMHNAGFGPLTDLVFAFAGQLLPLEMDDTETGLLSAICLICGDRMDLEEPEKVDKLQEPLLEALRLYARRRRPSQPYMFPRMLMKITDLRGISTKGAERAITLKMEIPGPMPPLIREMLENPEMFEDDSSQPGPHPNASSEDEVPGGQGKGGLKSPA
# Sequence of RARg:RXRa (P19793 whole entry, chain 2 of 2): as the sequence (P19793 whole entry, chain 2 of 2) above
row,Binder,binding signal
1,B3,0.03 PBM z-score against 500 random probes
2,B8,-0.73 PBM z-score against 500 random probes
3,B9,7.87 PBM z-score against 500 random probes
4,B16,8.33 PBM z-score against 500 random probes
5,B21,-0.12 PBM z-score against 500 random probes
6,B26,0.21 PBM z-score against 500 random probes

# Target: PPARa:RXRa (Homo sapiens, UniProt Q07869;P19793 full;full)
# Experiment: as above
# Settings: tags: GST kept;His cleaved; copies: 1;1; label: surface-attached array probe
# How it was run: as §1
# Sequence of PPARa:RXRa (Q07869 whole entry, chain 1 of 2): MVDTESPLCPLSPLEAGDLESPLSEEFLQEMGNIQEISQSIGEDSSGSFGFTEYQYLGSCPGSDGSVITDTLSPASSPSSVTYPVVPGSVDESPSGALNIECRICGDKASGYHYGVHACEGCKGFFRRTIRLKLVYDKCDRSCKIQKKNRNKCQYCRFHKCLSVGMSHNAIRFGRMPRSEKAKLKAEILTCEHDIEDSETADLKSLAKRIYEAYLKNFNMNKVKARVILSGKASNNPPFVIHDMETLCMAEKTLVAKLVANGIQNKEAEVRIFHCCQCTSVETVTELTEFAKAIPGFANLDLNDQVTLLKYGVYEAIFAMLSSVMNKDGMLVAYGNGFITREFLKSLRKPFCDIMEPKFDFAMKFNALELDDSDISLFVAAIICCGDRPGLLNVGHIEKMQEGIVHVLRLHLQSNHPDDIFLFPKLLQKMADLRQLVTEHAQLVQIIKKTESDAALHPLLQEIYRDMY
# Sequence of PPARa:RXRa (P19793 whole entry, chain 2 of 2): as the sequence (P19793 whole entry, chain 2 of 2) above
row,Binder,binding signal
1,B4,0.08 PBM z-score against 500 random probes
2,B7,0.3 PBM z-score against 500 random probes

# Target: FXR:RXRa (Homo sapiens, UniProt Q96RI1;P19793 full;full)
# Experiment: as above
# Settings: tags: His kept;His cleaved; copies: 1;1; label: surface-attached array probe
# How it was run: as §1
# Sequence of FXR:RXRa (Q96RI1 whole entry, chain 1 of 2): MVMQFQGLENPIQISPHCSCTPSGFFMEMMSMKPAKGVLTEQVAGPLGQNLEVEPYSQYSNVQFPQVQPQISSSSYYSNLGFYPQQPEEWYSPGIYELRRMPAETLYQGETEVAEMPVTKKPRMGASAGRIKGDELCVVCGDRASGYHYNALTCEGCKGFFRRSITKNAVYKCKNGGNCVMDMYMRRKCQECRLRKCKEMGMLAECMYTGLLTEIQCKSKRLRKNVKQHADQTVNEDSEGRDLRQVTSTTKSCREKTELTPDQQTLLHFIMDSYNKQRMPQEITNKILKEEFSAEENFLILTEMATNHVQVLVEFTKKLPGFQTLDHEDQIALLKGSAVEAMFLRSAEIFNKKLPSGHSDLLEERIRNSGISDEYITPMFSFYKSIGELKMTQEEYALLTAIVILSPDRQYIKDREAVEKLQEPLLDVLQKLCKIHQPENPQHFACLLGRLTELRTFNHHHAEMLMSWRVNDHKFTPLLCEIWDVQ
# Sequence of FXR:RXRa (P19793 whole entry, chain 2 of 2): as the sequence (P19793 whole entry, chain 2 of 2) above
row,Binder,binding signal
1,B29,-0.1 PBM z-score against 500 random probes

# Source: paper PMC6555819, “Comprehensive study of nuclear receptor DNA binding provides a revised framework for understanding receptor specificity”
